In article PMC5048595 one finds Kd data, which are given here for ten molecules.

T1: hPolη (human DNA polymerase eta) (Homo sapiens, UniProt Q9Y253 1-713)
T1 sequence: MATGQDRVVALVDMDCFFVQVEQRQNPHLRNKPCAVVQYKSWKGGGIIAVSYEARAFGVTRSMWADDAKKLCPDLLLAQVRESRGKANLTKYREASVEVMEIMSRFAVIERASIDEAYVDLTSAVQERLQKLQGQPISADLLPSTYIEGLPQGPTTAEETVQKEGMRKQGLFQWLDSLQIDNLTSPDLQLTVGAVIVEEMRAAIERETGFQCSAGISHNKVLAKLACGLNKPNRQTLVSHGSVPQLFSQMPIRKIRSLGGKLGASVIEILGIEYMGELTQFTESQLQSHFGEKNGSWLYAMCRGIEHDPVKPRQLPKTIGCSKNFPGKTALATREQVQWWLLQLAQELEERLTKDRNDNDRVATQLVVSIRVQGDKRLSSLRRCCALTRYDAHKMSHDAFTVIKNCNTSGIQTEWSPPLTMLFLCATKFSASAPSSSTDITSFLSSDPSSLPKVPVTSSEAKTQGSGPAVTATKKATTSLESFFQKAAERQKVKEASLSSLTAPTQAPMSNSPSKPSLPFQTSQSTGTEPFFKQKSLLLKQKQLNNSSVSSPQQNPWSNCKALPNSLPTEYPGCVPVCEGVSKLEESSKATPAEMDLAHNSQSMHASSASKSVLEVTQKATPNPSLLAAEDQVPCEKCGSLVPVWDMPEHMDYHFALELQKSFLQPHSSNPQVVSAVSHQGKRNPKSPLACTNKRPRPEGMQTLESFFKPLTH

B1: 20/26-mer-dGC8-N-ABA (dsDNA)
DNA 1: AACGACGGCCAGTGAATTCG
DNA 2: CCCGCGCGAATTCACTGGCCGTCGTT
modifications: template dG at position 21 from 3' end (6 from 5' end) is N-(2'-deoxyguanosin-8-yl)-3-aminobenzanthrone
B2: 18/26-mer-dGC8-N-ABA (dsDNA)
DNA 1: AACGACGGCCAGTGAATT
DNA 2: CCCGCGCGAATTCACTGGCCGTCGTT
modifications: template dG at position 21 from 3' end (6 from 5' end) is N-(2'-deoxyguanosin-8-yl)-3-aminobenzanthrone
B3: 20/26-mer (dsDNA)
DNA 1: AACGACGGCCAGTGAATTCG
DNA 2: CCCGCGCGAATTCACTGGCCGTCGTT
B4: 18/26-mer (dsDNA)
DNA 1: AACGACGGCCAGTGAATT
DNA 2: CCCGCGCGAATTCACTGGCCGTCGTT
B5: 22/26-mer-dGC8-N-ABA (dsDNA)
DNA 1: AACGACGGCCAGTGAATTCGCG
DNA 2: CCCGCGCGAATTCACTGGCCGTCGTT
modifications: template dG at position 21 from 3' end (6 from 5' end) is N-(2'-deoxyguanosin-8-yl)-3-aminobenzanthrone
B6: 19/26-mer (dsDNA)
DNA 1: AACGACGGCCAGTGAATTC
DNA 2: CCCGCGCGAATTCACTGGCCGTCGTT
B7: 21/26-mer-dGC8-N-ABA (dsDNA)
DNA 1: AACGACGGCCAGTGAATTCGC
DNA 2: CCCGCGCGAATTCACTGGCCGTCGTT
modifications: template dG at position 21 from 3' end (6 from 5' end) is N-(2'-deoxyguanosin-8-yl)-3-aminobenzanthrone
B8: 21/26-mer (dsDNA)
DNA 1: AACGACGGCCAGTGAATTCGC
DNA 2: CCCGCGCGAATTCACTGGCCGTCGTT
B9: 19/26-mer-dGC8-N-ABA (dsDNA)
DNA 1: AACGACGGCCAGTGAATTC
DNA 2: CCCGCGCGAATTCACTGGCCGTCGTT
modifications: template dG at position 21 from 3' end (6 from 5' end) is N-(2'-deoxyguanosin-8-yl)-3-aminobenzanthrone
B10: 22/26-mer (dsDNA)
DNA 1: AACGACGGCCAGTGAATTCGCG
DNA 2: CCCGCGCGAATTCACTGGCCGTCGTT

The data set deals with T1, hPolη (human DNA polymerase eta). In words: EMSA.
As for B1, the Kd was found to be 0.012 ± 0.002 µM.

B2 yielded a Kd of 0.032 ± 0.005 µM.

Molecule B3 yielded a Kd of 0.023 ± 0.002 µM.

For B4, binding was put at a Kd of 0.028 ± 0.003 µM.

Regarding B5, the Kd stood at 0.024 ± 0.004 µM.

For the molecule B6, the affinity, expressed as Kd, was 0.025 ± 0.005 µM.

B7 yielded a Kd of 0.026 ± 0.007 µM.

For B8, the Kd was determined as 0.026 ± 0.001 µM.

In turn, B9 gave a Kd of 0.012 ± 0.002 µM.

B10 came in with a Kd of 0.017 ± 0.006 µM.
